In the domain aggregation screens of Martell et al. (2025):

Assay: soluble fraction after stress (log2 fold change); higher = more stays soluble; pooled small domains, quantitative proteomics
Settings: stress: 50 degC
Procedure, shortened: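 The stress applied to every library was 50°C. These custom libraries of small protein domains were pooled and measured at high throughput with quantitative proteomics as the read-out. Aggregation propensity is expressed as the base-two logarithm of the fold change in how much of each protein remains soluble. The higher the value, the more of that protein stays in solution.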

Sequence | soluble fraction (log2)
HMLTWNQLGLITKPVVFLDGTGYYARLFEAFEHMISTGFVKENYRAMMNRATSVEEAVRIASSPAPKVD | -0.0676
HMTARYQQVEDYIVRRIQDGSWPPGHRLPSEHELVQQFGMSRMTVNRALRDLMQKGRIVRVAGVGSFVAQD | -1.41
HMSLSPAATRSRGYPSVLLTMKAPERLVSAAGPDRRAYLVGTDPLVIELPGVKGLYKVDPDQIVFE | 0.0566
HMNNLLEDIKARLMAQAEAGGHIDTETELAEHFGVTRYRIRKELDLLSQMGLLRRQPKNGIEVLTV | -0.106
HMPFDRTVQLAGARARQLQALPRYREVLRLLDEGMNPREIGQVLDPPVTRQRASALIQQAKRAQMLGLFED | -0.857
HMAQMDDPEMVLHIYNKMIQQRLFDTAVGYSYLKDLQEYLQSIPFIRKEDIFPIPVQHPQVEESLRKAK | -0.367
HMGDYDHYVVKVEDTLLNWLVTNVTTMSRNKLKDILAGQGIKVNGKITTKYDYPLTPGMKIAISKTKR | -0.275
HMVAREAYTTQNLTDVFSISRQAVEKRAKREGWQSVPRKGRGGGKLWVVSSMPAETRDLLASLLLRK | -0.609
HMTFKDIMENYTISRIENTINSAVVFLDEINAYITIDKTQLPSNLRYDTDSKIMASQIPDDAKIKYFMIYW | -1.99
HMDVIGLEAAKSAAVKDAGISSPTFTKATLDRDDGRSLYEIEFISGSTKYEYDIDALTGSVLSKKTRALS | -0.112
HMQKPIKPVKMHTVGPKENLSSIGRMYEVNGRVLANYNNIDYDKGLTIGQVLKIPPKGTTLEQVT | 0.431
HMKNKVTVPKVEGMDKEEAIQALNEVGLGYKAVMQSSDSVAEGKVISQGTAAGKKVDKNTQIIITVSGG | 0.00222
HMRMQRYYLTDMSEKGREALPGVLDEMGYAGRYTMSDNSIAINSNMIVLSKAIKRAEDIAHNE | -0.086
HMEVKSGFVHLTGAVKSPGVYPISIGMRLFEVIALAGGFTAKADRESVNLARTVTDGEQIIVSGSG | -1.7
HMQSEISRIGRILKERRLQLGYTQEYAAEKAGISYSYYTKIERGQQLPSLEVAMVLSKTFSLSMDRWL | -4.77
HMAEPSTSYTQFMDQAKEGKIKRVDVQGRTLTVTPTEGATYKITAPGDLWMVEDLRKAGVQVYGQP | 0.207
HMDSVEYRVITGDDVNFRKGPSTDYASLGKLNKGYKVEYISETNSWSKVKYNGQTGYVYSKYVAQT | 0.0362
HMRESDQSTVELSLERTIQEALMVNPRTSSVEEFSFEWGTGRVKVSFIVYSVDGEPFTVDSIIE | -2.27
HMAKRPRFEDVIKEINTEIQKRKGKWNLTILSWMDFDDVAQVIRIHIYRKWHLYDPSKPLGPWLNR | 0.0232
HMNDTLGVNIKRLRKEKGMTQDEVAKAVYTTRYNILRYESGKMTPSSEVIERLEKALGVPTGSLAQ | -0.332
HMVGEQISYIPLKFATASEVVKSLTSMFQQQKGIAPIRIVAEERTNAILLLASEADTARVKNLIAMMDKGV | -0.0246
HMASANMPDVLGLDAETAKQVLAAKGFTKVEIYPMESSEPANRVVRQSEDRDTMVALTKEILLGVSNGS | 0.186
HMRAMWENLFFQYKEGFLPEEYYKQGIATGIRLAGPKFVEMNIPMQKEFEDEVHRLLAEHEKSVK | -0.748
HMSQQEAQLNSLVKIYESMKPKDAARIFDTLDMDVLLDVVMRMKEARSAAVLAEMTPDRAKEVTLQLAD | -0.61
HMLPPHMEVRAIMILDKRPMALMNIEGEGDGLIVSPGYRFGDGRGRVVSITQTKVVVLWAGTSMEL | -2.28

Sequence | soluble fraction (log2)
HMYDKKVFRLLFILNQLDSRKKVSTGELAKEFNVSPRTVQRDIVLLNTTGFPIISLEKGYHSFMEGFSLK | -1.12
HMHHSGLRQSQFDEISRQIRSLLEMESLSLQELKTRMEDVPEEQLTKVVSYLLSEEIIRQENGRLQ | -0.0768
HMRTMRHLSVPRQETQQILSQLKAEFALPQGARVQPDPSDSKRTLIPVKEGAESELLSRYPVVHAEP | 0.0847
HMVEPDELTEREREVLQFVARGLSNKEIGAALALSPHTIKAHLRSILDKLHLRSRAEAAAWAVRSGLS | -0.143
HMIDNFFTIRFNYSKINEVIRLLKEFNGEIFNKNYDKNEYIIEFSIPKKDAALLISKLKNITGLTIEQ | -0.00473
HMVVRKHDRYYTPEHRKLLMDTYERTNKYPTKQDMSELAKIIGVLPIKILWWYTHRRRQDRRKGEESSSP | -0.0096
HMKKPKTVLSEEQKEFIINQAQDGVSAYDIARILFPSVNVTNLSKEVIDVAEFIRDTDIKLLADSE | 0.0694
HMDPLPDEVQEVIDMVDGFKAMDELSEADKADVKAAYDAYNALSAEHKAMVPEHIVTFLNRAYDKLFD | 0.0291
HMSLLQTRQRHEALAALGFFKGDVAAEWSAASTEALRAAQASLGIRVDGKWGPQTEDAIGKALAERQG | -0.102
HMYPNEFPRKVMSVFESSGLEMFRTIEMLLAIPEYETPLPYGSGVSRSDIFVLAKSAGNLVSITV | 0.00886
HMDAPLIIAETRVDVPDATVSDAVMMLDLRNTNALLFKNSGSGVLNMVYRRGDGTIGWGEPQ | -0.0172
HMVRKGEINFDQLSVRARNALRNMNILFEKEILKLTEYDLKSIPNLGVKTTNELLSYIKRLQTNQKEE | -0.191
HMGRRERKKLQSRRAIIEAAVTEFKEKGFREASVADIMTRADLGLGTFYNYFQSKEDILMSLLS | -0.0676
HMIMPSDATEAKLLGVLGNEPLHVDEIRNQAELPIEKVSAALALMELKGMVRQVGGMNYVAVR | 0.117
HMYQFFVDPGQIQGKRVTITGSDVNHIKNVLRMRIGEEIAVSNGKDGLEYRFGIDEILEDEVIGTLRFVKE | -0.968
HMITLPDFVGKDVETVKAWAKENGITLIVNKVEDSAKKDTVISQTPTTYDYSKIMKGSSFTVNVAKE | -0.0122
HMGPSSIVVYVSGAVKTPGVYTLAPGSRVDDAVRAAGGLSERAESAGTNLAAQLSDGEHVHVAAAGE | 0.228
HMQNLISSDEAKNIALQHANLTDNQVTFIKVSKDYDDGIHIYEVEFHYNNREYNYDINAINGTILSYEQ | -0.574
HMGRRRAAPQEPLRQFPASPVTGQPIKLLLGQYGPYVTDGTTNASLPKGSSPDELTFEQATQLLAERALRG | 0.109
HMEILTRQLTHYLHLLPPAQQEVVRGVYLQDQTLQEIADRVQIPLGTVKSRLRLGLSKLREQIEQEHE | -0.916
HMRHTRQRQAVLDALVRSGQALSPQDLLGQAKSAVPSLNLSTVYRQIKGLQDAGQIVRVELPGQPPRFEM | -0.107
HMREIEVNYAAGDSVRVIDGPLAGFIGVVSSVEPDKNKVNVTVSMFGRETPVELELDQVETLD | 0.159
HMYHPGFEALREVARQGSFIKAARALGISGPAVSKQIKSLEARLNLVLLHRTTRAVTLTEAGQRLTEILD | -2.07
HMTTELDTTAITPIIQKVLKANPDVVAKYKAGQQQVIGFLMGQVMRELSTKPNPKELQSLIVAQLQQA | 0.0755
HMKNSMANVQARREKILSAVDQSEPVAVEGLAQRFNVSITTLRRDLKALSDMGQVKWHHGLVERT | -0.173

Sequence | soluble fraction (log2)
HMLSDFHLNHDSIVNHTVQKKETIFSLSKKYGLSINEIIKANPGIQIDKLKRRSILIIPLRKK | -1.9
HMQLPDLDEIRQMRKRLDLSQRELAALAGVSQSLIAKIEKGSIDPSYDNVRKIFNAFENILKKRALE | -0.255
HMSEPHPPFQVVAQFPYKSEYEDDLNFEKDQIITVTSIEDDEWYYGDFKNKGGELVEGIFPKSFVTVK | -0.403
HMEYYIMPVANLHKVVVDGKDMSNLISNNAIAVKANVIDEGQIQIKPGEIIITTPAGVSPEEAVRSP | 0.441
HMEISNWLEEIGLSRYTETLSEFPLEDLVEFTDDDFKELGVLTPHRKKLLAAIATLNNDASSN | -0.255
HMKSLHSEVTDRIRQLIVESHLQPGQRVPELEISRDLGVSRTPIREALKVLAAEGLVELLPLRGAMVK | 0.0612
HMIVPPAIPFRALGIFGPRDRPIVTFEDGPRLINAREGDVLDGRFILRRVGRESVDFAFVGLPPEITRRIP | -0.466
HMETPQIVARGDLITMVFRSGSLVLTAKGKALENGAMGDTIRVVNSDSNKTLAARVSASREVTVSE | -0.417
HMYELREGDVVSVRILSQTGQNSYIASFAGGRFSVTSERAFAPGTVFSASVSLKDGTLVLSPL | -0.568
HMPLDYQELRNISPQAARQAILQILKANKGNVSQTARMLGITRKTVYKAMAKREAGNLDDGSRAPK | -0.554
HMTNYGTVRPGARGQAVTALQQALIRHGYKLTADGIYGRATRQAVRAFQQKHKLKVDGIVGSKTWALLLAD | -1.04
HMVDPWLEQVHRASAAYATAHGSARIPTTHPDLGWKVVRVRQRHRKGLLSDEWVAKFEALPGWTWEPK | -0.282
HMNMEYQKAINHIVQMVKDGQLIVGSKIPSERDLSESLGIGRNSTREAISILRGMGLVESRHGSGNYIAKD | -0.148
HMGSEGVKVEDTIGMSEAEATATLGKSGFVVNKTESHDPYIKAGNVITQSPAAGSKAPKGTTVTLTISLGP | 0.131
HMAHTGGNTLTREKAVSVRSASDALLFEIHWNETPREDILSTREEKVDGKTYSIITIRTGKGREDHYYLLS | -0.29
HMEIGELITLYRKQAGLTIDELSEKANVPKGTLNKIIGGITKAPTLETMRSIAYALGKKLADFDN | -0.34
HMDVQNLTKKNQEFINIVTHQLLQSGKSDEDIQTILAKTLPEIIEKQKQGIPARSFLGAPTAWAAQFI | 0.133
HMRGFGYVRRLPSKRYQASYAGPDLQRHVAPTTFTTKADAESWLGAERKVVESGSWRPPAVREAEARLS | 0.357
HMSQLSDEQELRDIARGIIEGNPNEAEKYRAGRTGLLGFFVGKLMAETEGKANPRLASRILKELLE | -0.0477
HMPSLSREREAAILEMIERRPSTAEDVASGLGLAVNEVIKLLDGTALRGSVETFQSGEEIYYTRKR | 0.144
HMNPNPFVNLSPRELEVLNLLFKGYGVLEISNELNIGQTTASTFKSRILKKTSTHSVVELIKLAEQYGFIP | -0.508
HMNSLKNKNNLIALVGASNDKNKYGNKILLDLVSKGHNVVPINPKEDTVAGLKSYNNVSELSEKPSI | -0.211
HMQISDAGALLDAVRRVLAENPAQVEQFRAGKEKVMGFLVGQVMRATGGKANPQMLNDVLREELS | -0.0404
HMIDLPEAFIQQLKEAVDVGDVTGLRELLGQLRRRYPQQSALSDEAERLLREFDFERLAQLFEGLD | -1.42
HMKPKDILLPNFTNLTLDEAKAKAEEVKLNLNVSEEKYDVQIEEGKIISQDPKYQPNYTVKEGSTVNVVVS | 0.161
